{"source": "patent US9296786B2", "about": "“Shortened secreted polypeptides” (TWO TO BIOTECH LTD., priority 2009, dated 2016)", "key": {"[1]": {"test": "IPGTT in mice treated with streptozotocyn (STZ), after 4-5 weeks of peptide treatment", "type": "in vivo, C57B1/6 mice", "conditions": "STZ-treated C57B1/6 male mice; PRT8 100 μg/mice; sbPRT8 20, 100 or 300 μg/mice; 4 or 5 weeks of treatment; sbPRT8 compared with PRT8", "from_the_text": "In the following experiments, a sbPRT8 peptide blocked with an acetyl moiety at the N-terminal end and an amide moiety (NH2) at the C-terminal end has been employed. The effect of sbPRT8 administration on glucose levels was examined and compared to the effect obtained with PRT8 in mice treated with streptozocin (STZ). As known in the art, STZ is a chemical compound that is particularly toxic to the insulin-producing beta cells of the pancreas in mammals. It is used in medicine for treating certain cancers of the Islets of Langerhans and used in medical research to produce an animal model for Type 1 diabetes as well as Type 2 diabetes.\n(§1) C57B1/6 males mice were purchased from Harlan Laboratories Ltd., Jerusalem, Israel, After 7 days of rest, mice were IP injected with 50 mg/kg STZ for 4 days. Five days after STZ injection, mice were treated as follows: • Group A (control)—100 μg/mice of PRT8 (control) • Group B (treatment)—20 μg/mice of sbPRT8 (treatment 1) • Group C (control)—100 μg/mice of sbPRT8 (treatment 2)\nAfter 5 weeks of treatment mice were starved for food only for 12 h and then were IP injected with […] of glucose solution (IPGTT). The level of glucose in mice blood was measured with Accucheck glucometer (Roche) at t=0, 15, 30, 60, 90 and 120 minutes following glucose injection.\nas §1, with “Jerusalem, Israel.” for “Jerusalem, Israel,”, “B (treatment)—100” for “B (treatment)—20”, “C (control)—300” for “C (control)—100”\nAfter 4 weeks of treatment mice were starved for food only for 12 h and then were IP injected with […] of glucose solution (IPGTT). The level of glucose in mice blood was measured with Accucheck glucometer (Roche) at t=0, 15, 30, 60, 90 and 120 minutes following glucose injection."}, "[2]": {"test": "Effect of PRT6 administration on blood serum testosterone level (R&D Systems Testosterone Immunoassay)", "type": "in vivo, Balb/C mice", "experimental": "Two groups of Balb/C mice were used: • 3-4 week-old male Balb/C—Negative control for testosterone—18 mice • 7-8 week-old male Balb/C mice—18 mice\nEach group was divided into 3 sub-groups (6 mice each). Each group was injected every day for a 4 day-period with 200 μl of one of the following: • 4% DMSO in double-distilled water (DDW) • 0.5 μg/kg of PRT6 (diluted in DDW) • 5 μg/kg of PRT6 (diluted in DDW)\nAfter 4 days, blood serum was extracted from the mice and tested for testosterone levels. Testosterone measurement was done using the R&D Systems Testosterone Immunoassay (R&D Systems Catalog Number KGE010). This assay is based on the competitive binding technique. A monoclonal antibody specific for testosterone binds to the goat anti-mouse antibody coated onto the microplate. Following a wash to remove excess monoclonal antibody, testosterone present in the sample competes with a fixed amount of horseradish peroxidase (HRP)-labeled testosterone for sites on the monoclonal antibody. This is followed by another wash to remove excess conjugate and unbound sample. A substrate solution is added to the wells to determine the bound enzyme activity. Color development is stopped, and absorbance is read at 450 nm. The intensity of the color is inversely proportional to the concentration of testosterone in the sample."}, "[3]": {"test": "Effect of PRT8 administration on glucose levels after glucose injection in starved mice", "type": "in vivo, C57B1 mice", "conditions": "1 μg/kg or 10 μg/kg PRT8", "experimental": "All the mice were injected with PRT8 (or saline) on day 1. The first group was starved on day 2 and checked for blood glucose levels (using an Accu-Chek®Performa device, Roche Diagnostics) on day three. The second group was starved and checked for blood glucose levels three days after injection. Starvation was done overnight (the night before glucose injection), and the next day 2 mg/kg of glucose was injected to each mouse. A time course analysis of glucose levels was performed with glucose levels checked at t=0, 30, 60 and 120 minutes following glucose injection."}, "[4]": {"test": "Effect of PRT5 administration on glucose levels after glucose injection in starved mice", "type": "in vivo, C57B1 mice", "conditions": "starting 2 days and up to 4 days after injection; 2 mg/kg glucose after overnight starvation", "experimental": "The mice were divided into 4 groups. The first group was starved and checked for blood glucose levels (using an Accu-Chek® Performa device, Roche Diagnostics) one day after injection; the second group—two days after injection, the third group—three days after injection and the fourth group—four days after injection. Starvation was done overnight (the night before glucose injection), and the next day 2 mg/kg of glucose was injected to each mouse. A time course analysis of glucose levels was performed with glucose levels checked at t=0, 30, 90, 120, 150 and 240 minutes."}, "insulin receptors": {"system": "insulin receptors", "test": "Levels of insulin receptors in skeletal muscle of mice treated with PRT5", "type": "in vivo", "conditions": "data not shown"}, "p53": {"system": "p53", "test": "Induction of p53 expression by PRT7 (data not shown)"}}}
{"molecule": "PRT8 C-ter: PRT8 fragment, sequence LLVSLYPA (listed as Homo sapiens)", "values": [{"measurement": "reduction of blood glucose level (IPGTT)", "setting": "[1]", "result": "no significant blood glucose reduction"}]}
{"molecule": "PRT6: novel chemokine-like secreted polypeptide from human cDNA libraries, amino acid sequence SEQ. ID. NO. 2 (MPPFSVGLVVVVNVVCLMLYESTTILRLYGIILFMRDLKLEVEDAKITIALALRNS; listed as Homo sapiens)", "values": [{"measurement": "testosterone levels in blood serum", "setting": "[2]; 0.5 μg/kg or 5 μg/kg PRT6 daily for 4 days, male Balb/C", "result": "significant increase"}, {"measurement": "effect on testosterone levels of 5 μg/kg compared with 0.5 μg/kg", "setting": "[2]; 5 μg/kg vs 0.5 μg/kg PRT6, daily for 4 days", "result": "much more pronounced"}]}
{"molecule": "sbPRT8: shortened C-terminal fragment of PRT8, sequence KPETCPGLLV SLYPA (KPETCPGLLVSLYPA; listed as Homo sapiens)", "values": [{"measurement": "reduction of blood glucose level (IPGTT)", "setting": "[1]", "result": "very significant improvement"}]}
{"molecule": "PRT8 N-ter: PRT8 fragment, sequence SHLFGSFAWN FLLSS (SHLFGSFAWNFLLSS; listed as Homo sapiens)", "values": [{"measurement": "reduction of blood glucose level (IPGTT)", "setting": "[1]", "result": "no significant blood glucose reduction"}]}
{"molecule": "PRT8: novel chemokine-like secreted polypeptide from human cDNA libraries, amino acid sequence SEQ. ID. NO. 4; full length PRT8 peptide (protein, listed as Homo sapiens) MLVFLKLWPQCLFFALTFFLRNCIYFKDFLSHLFGSFAWNFLLSSRSMDPTSCWTAPIWRSHRPLNSAPVSESPNYPLFTWSLKPETCPGLLVSLYPA", "values": [{"measurement": "glucose levels compared with mice administered saline", "setting": "[3]; starting 2 days after administration, 2 mg/kg glucose after overnight starvation", "result": "significantly lower"}, {"measurement": "glucose-lowering effect three days following injection compared with two days", "setting": "[3]; three days following PRT8 injection", "result": "more evident"}, {"measurement": "reduction of blood glucose level (IPGTT)", "setting": "[1]", "result": "significant reduction"}]}
{"molecule": "PRT5: novel chemokine-like secreted polypeptide from human cDNA libraries, amino acid sequence SEQ. ID. NO. 1 (protein, listed as Homo sapiens) MKPMERWWSRALFTTCPVGPSGCAAGLLWPRNTDARSPLHSQTLWVCSWAALAQKHRCTVTPAQPAP", "values": [{"measurement": "glucose levels compared with mice administered saline", "setting": "[4]", "result": "significantly lower"}, {"measurement": "levels of insulin receptors in skeletal muscle", "setting": "insulin receptors", "result": "capable of increasing the levels of insulin receptors"}]}
{"molecule": "PRT7: novel chemokine-like secreted polypeptide from human cDNA libraries, amino acid sequence SEQ. ID. NO. 3 (protein, listed as Homo sapiens) MGMIVPPSLAAAGGASTTPRLHALRLTSLLHQHLDLCLHPSPLPTPPSAPCLSGLVPPDSSLSVLDTLQV", "values": [{"measurement": "expression of p53", "setting": "p53", "result": "can induce the expression of p53"}]}
